The target in the assay is αB-crystallin deletion mutant lacking residues 54FLRAPSWF61 (αBΔ54–61) (human) (UniProt P02511). Description: SEC-MALS. In general terms: In gel filtration, larger molecules generally elute earlier.

“αB-crystallin deletion mutant lacking residues 54FLRAPSWF61 (αBΔ54–61) (from UniProt P02511 1-175) (natural protein)” came in with a stoichiometry N (subunits/oligomer) of 20.

Values taken from article PMC3997080.
